Values joined by “and” are separate entries in the source; they are usually repeats but may differ in a detail not shown here. Identical values can stand only once.

Targets include HSPA1A wild-type (WT) (human, UniProt P0DMV8 1-641); HSPA1A K71A (human, UniProt P0DMV8 1-641, K71A); HSPA1A S16P (human, UniProt P0DMV8 1-641, S16P); HSPA1A S16Y (human, UniProt P0DMV8 1-641, S16Y); HSPA1A R36C (human, UniProt P0DMV8 1-641, R36C); HSPA1A I74T (human, UniProt P0DMV8 1-641, I74T); HSPA1A I480N (human, UniProt P0DMV8 1-641, I480N); HSPA1A F592S (human, UniProt P0DMV8 1-641, F592S).

What all share (test): ITC
(In general: In ITC the heat of successive injections is recorded.)

Chain of HSPA1A R36C (P0DMV8 whole entry R36C): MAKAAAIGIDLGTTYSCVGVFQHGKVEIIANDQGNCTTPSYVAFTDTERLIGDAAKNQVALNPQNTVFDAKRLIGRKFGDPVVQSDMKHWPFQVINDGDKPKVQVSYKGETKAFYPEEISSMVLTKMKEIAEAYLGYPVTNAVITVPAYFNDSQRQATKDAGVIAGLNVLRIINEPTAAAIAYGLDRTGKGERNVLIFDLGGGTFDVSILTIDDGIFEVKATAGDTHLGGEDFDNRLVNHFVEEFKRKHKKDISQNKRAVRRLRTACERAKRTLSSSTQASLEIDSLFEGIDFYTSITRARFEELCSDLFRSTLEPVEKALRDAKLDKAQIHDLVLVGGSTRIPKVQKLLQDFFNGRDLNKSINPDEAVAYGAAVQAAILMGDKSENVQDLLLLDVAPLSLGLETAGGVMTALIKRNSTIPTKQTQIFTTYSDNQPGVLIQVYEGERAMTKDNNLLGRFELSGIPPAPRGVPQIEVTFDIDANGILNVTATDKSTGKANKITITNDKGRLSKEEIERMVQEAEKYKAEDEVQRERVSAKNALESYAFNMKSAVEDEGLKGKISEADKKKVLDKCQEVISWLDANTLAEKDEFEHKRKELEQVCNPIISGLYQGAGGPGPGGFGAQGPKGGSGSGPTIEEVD
Chain of HSPA1A wild-type (WT) (P0DMV8 whole entry): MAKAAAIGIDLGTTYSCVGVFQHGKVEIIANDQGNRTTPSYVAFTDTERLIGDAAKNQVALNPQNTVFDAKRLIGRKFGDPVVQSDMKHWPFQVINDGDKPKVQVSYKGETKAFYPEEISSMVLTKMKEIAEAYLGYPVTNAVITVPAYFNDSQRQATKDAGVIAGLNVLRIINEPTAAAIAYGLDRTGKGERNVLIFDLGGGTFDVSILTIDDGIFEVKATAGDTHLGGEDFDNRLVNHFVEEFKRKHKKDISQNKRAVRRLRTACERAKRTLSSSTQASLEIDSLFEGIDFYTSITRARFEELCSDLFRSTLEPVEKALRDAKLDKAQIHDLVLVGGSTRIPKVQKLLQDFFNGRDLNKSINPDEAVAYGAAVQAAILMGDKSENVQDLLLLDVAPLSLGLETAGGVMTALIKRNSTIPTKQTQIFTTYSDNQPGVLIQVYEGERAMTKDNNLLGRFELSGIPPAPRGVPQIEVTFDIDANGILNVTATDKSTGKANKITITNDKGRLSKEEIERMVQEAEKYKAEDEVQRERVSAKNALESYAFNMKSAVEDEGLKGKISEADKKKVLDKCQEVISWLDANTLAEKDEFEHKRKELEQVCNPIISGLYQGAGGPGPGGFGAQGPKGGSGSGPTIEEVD
Chain of HSPA1A K71A (P0DMV8 whole entry K71A): as the sequence (P0DMV8 whole entry R36C) above, with C36R, K71A counted along it
Chain of HSPA1A I74T (P0DMV8 whole entry I74T): as the sequence (P0DMV8 whole entry R36C) above, with C36R, I74T counted along it
Chain of HSPA1A F592S (P0DMV8 whole entry F592S): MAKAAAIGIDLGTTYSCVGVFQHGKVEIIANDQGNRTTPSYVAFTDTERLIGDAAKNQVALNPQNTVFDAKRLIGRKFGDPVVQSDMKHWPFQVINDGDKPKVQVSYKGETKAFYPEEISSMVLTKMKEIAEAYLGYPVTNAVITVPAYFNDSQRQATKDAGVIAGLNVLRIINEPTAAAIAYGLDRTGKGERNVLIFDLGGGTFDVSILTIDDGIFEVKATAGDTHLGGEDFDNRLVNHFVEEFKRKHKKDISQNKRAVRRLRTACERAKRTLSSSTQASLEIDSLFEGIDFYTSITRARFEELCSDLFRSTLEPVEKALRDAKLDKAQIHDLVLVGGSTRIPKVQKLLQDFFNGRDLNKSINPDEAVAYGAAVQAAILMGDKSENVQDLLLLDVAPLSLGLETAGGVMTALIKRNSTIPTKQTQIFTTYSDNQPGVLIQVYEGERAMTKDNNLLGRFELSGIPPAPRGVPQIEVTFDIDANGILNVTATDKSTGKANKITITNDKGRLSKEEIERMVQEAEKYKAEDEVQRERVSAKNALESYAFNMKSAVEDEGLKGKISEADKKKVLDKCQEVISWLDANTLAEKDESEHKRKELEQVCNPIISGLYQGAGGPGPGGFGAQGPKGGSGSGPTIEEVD
Chain of HSPA1A S16Y (P0DMV8 whole entry S16Y): as the sequence (P0DMV8 whole entry R36C) above, with S16Y, C36R counted along it
Chain of HSPA1A I480N (P0DMV8 whole entry I480N): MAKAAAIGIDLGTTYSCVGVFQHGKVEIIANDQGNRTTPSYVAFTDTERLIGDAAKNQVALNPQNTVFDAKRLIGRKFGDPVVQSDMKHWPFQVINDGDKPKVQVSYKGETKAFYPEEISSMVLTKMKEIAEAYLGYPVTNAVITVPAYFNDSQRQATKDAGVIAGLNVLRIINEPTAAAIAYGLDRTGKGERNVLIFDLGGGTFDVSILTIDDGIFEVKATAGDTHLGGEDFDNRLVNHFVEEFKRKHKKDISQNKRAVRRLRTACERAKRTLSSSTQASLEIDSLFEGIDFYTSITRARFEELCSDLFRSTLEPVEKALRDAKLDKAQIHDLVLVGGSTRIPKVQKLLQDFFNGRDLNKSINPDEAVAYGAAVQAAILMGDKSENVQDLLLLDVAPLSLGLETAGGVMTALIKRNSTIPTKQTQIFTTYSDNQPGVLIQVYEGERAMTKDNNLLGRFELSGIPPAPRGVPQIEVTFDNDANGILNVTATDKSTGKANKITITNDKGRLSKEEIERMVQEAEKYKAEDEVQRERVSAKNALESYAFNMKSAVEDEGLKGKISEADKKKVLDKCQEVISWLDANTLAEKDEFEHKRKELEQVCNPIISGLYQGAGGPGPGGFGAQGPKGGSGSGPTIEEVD
Chain of HSPA1A S16P (P0DMV8 whole entry S16P): as the sequence (P0DMV8 whole entry R36C) above, with S16P, C36R counted along it

The term Kd denotes the equilibrium constant for the complex coming apart. Low readings indicate tighter binding, high ones weaker binding. The term stoichiometry N denotes the number of molecules, sites or subunits per partner or assembly. NIVAKKK [protein substrate (peptide NIVAKKK)]: the Kd in the assay with HSPA1A wild-type (WT) is 335 nM and 529 nM and 364 nM; with HSPA1A K71A, 528 nM and 615 nM and 635 nM; with HSPA1A S16P, 738 nM and 679 nM and 599 nM; in the assay with HSPA1A S16Y it was 335 nM and 331 nM and 315 nM; with HSPA1A R36C, 576 nM and 472 nM and 509 nM; with HSPA1A I74T, 999 nM and 995 nM and 935 nM. Moreover, the Kd is 710 nM and 661 nM and 697 nM with HSPA1A I480N; 559 nM and 500 nM and 374 nM with HSPA1A F592S. The dH with HSPA1A wild-type (WT) is -6.18 kcal/mol and -4.72 kcal/mol and -4.79 kcal/mol; with HSPA1A K71A it was -2.77 kcal/mol and -3.32 kcal/mol and -2.86 kcal/mol; with HSPA1A S16P it was -2.98 kcal/mol and -3.21 kcal/mol and -3.22 kcal/mol; with HSPA1A S16Y, -10.2 kcal/mol and -9.96 kcal/mol and -9.74 kcal/mol; with HSPA1A R36C, -3.75 kcal/mol and -3.81 kcal/mol and -3.88 kcal/mol; with HSPA1A I74T it was -4.52 kcal/mol and -4.7 kcal/mol and -4.85 kcal/mol. The dH is -4.43 kcal/mol and -5.06 kcal/mol and -4.72 kcal/mol with HSPA1A I480N; -3.84 kcal/mol and -4.67 kcal/mol and -3.66 kcal/mol with HSPA1A F592S. For the same molecule, the “stoichiometry N” value in the assay with HSPA1A wild-type (WT) is 0.993 and 1 and 1.02; in the assay with HSPA1A K71A it was 0.982 and 1 and 0.989; in the assay with HSPA1A S16P, 0.991 and 1 and 1.03; with HSPA1A S16Y, 1.04 and 1.02 and 1.01; with HSPA1A R36C, 1.03 and 1 and 0.984; with HSPA1A I74T it was 0.998 and 0.985 and 1.01. Moreover, the “stoichiometry N” value was 1.02 (2×) and 1.01 with HSPA1A I480N; 1.07 and 1.04 and 1.06 in the assay with HSPA1A F592S.

For the origin of these results see PMC6277039 (Biochemical and biophysical research communications, 2018).
